Measured values as given in US20230049152A1.

Biological target: human CCR8 (human) (UniProt P51685)
Test: cell-based or functional assay

ADCC reporter EC50, mFcgRIV Jurkat cells with CHO/hCCR8 (FIG. 11D): 0.28 nM
CCL1 blocking potency IC50, Ca2+ influx: 23.6 nM
induction fold at about 1 nM antibody, mFcgRIV Jurkat NFAT-luciferase reporter: > 10 fold
induction fold plateau at about 40 nM antibody, mFcgRIV Jurkat NFAT-luciferase reporter: 11 fold
Substance: murine anti-human CCR8 mAb L263G8 (Biolegend) (antibody)
